Data set [1] relates to MS2 coat protein. Kind of data set: apparent KD of MS2 coat protein, switch ON state; designed switch direction (-1 OFF switch, 1 ON switch): -1; higher = weaker reporter binding. The settings on record: FMN input: 0 or 200 uM; Eterna round: R93 (includes R88 designs). An outline of the steps: (§1)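 Titrations with SNAP-549-labelled MS2 coat protein ran in twofold steps from 0.7 or 1.5 nM to 3 µM, each step taking 0.8–1.5 h at the start and 10–20 min toward the end. The targets were designed RNA switches transcribed on-chip from Illumina sequencing clusters, held in 100 mM Tris-HCl pH 7.5, 80 mM KCl, 4 mM MgCl2, without or with constant ligand. Apparent KD was taken per design as the median of normalised cluster binding-curve fits.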

The test system of data set [2] is MS2 coat protein. Kind of data set: apparent KD of MS2 coat protein, switch OFF state (with FMN for OFF switches, without FMN for ON switches); designed switch direction (-1 OFF switch, 1 ON switch): -1; higher = weaker reporter binding. The settings on record: FMN input: 0 or 200 uM; Eterna round: R93 (includes R88 designs). In short, it runs like this: as §1

Regarding “AAAAAAGGAGGAUAUACGAACAUGUCAAAAGACGUGAAGGGACAUGAGGAUCACCCAUGUAGAAGGCUUAAAAA [JL Stem Breaker 4]”, the “apparent KD of MS2 coat protein” value amounted to 42.2 nM in the data set with MS2 coat protein [1] and 19.2 nM with MS2 coat protein [2].
“AACAGUACAGGAUAUACAUGAGGAUCACCCAUGUGAAAAUUAAGUGGAGUACCACAAGGUAGAAGGGUACUGGA [Mat - Exclusion 3 - Eli mod - D61]”: the results for the “apparent KD of MS2 coat protein” value with MS2 coat protein [1] and with MS2 coat protein [2] were 27.7 nM and 101 nM, respectively.
As for “AACAGUACAGGAUAUACAUGAGGAUCACCCAUGUGAGAGAAAUAAAACAAAAAUAAAAGUAGAAGGGUACUGAA [Mat - Exclusion 3 - Eli mod - D67]”, the “apparent KD of MS2 coat protein” value stood at 31.8 nM in the data set on MS2 coat protein [1] and 36 nM in the data set on MS2 coat protein [2].
Consider “UACAGACAUGAGGAUCACCCAUGUGAGGAUAUUCAUAACGAUAUUACAAGUAUGACAGGAAGAAGGCACAGCAA [JR_Exc001_Sub010]”, for which the “apparent KD of MS2 coat protein” value with MS2 coat protein [1] was 45 nM; with MS2 coat protein [2], 47.5 nM.
As for “AACAGUACAGGAUAUACAUGAGGAUCACCCAUGUAAAAAAAGGGUGGCGUACCACGAAGUAGAAGGGUACUGGA [Moding Maslow revisited (73) 11]”, the “apparent KD of MS2 coat protein” value in the data set on MS2 coat protein [1] turned out to be 187 nM; in the data set on MS2 coat protein [2], 81.3 nM.
In the case of “AAAAAACAUGAGGAUCACCCAUGUCAGGAUAUACAAAAGAAAAGAAAAAGAAAAGAAAGUAGAAGGGACAAAAA [mod1]”, the “apparent KD of MS2 coat protein” value in the data set with MS2 coat protein [1] was 23 nM; in the data set on MS2 coat protein [2], 24.6 nM.
In the case of “AAAAAGGCAGGAUAUACAAAAAAAAAAAAAGAGGAGGAGGGACAUGAGGAUCACCCAUGUAGAAGGGCCAAAAA [William Edward Burghardt 'W. E. B.' Du Bois]”, the results for the “apparent KD of MS2 coat protein” value in the data set on MS2 coat protein [1] and in the data set on MS2 coat protein [2] were 35.4 nM and 63.7 nM, respectively.
For the sequence “ACCUAACAUGAGGAUCACCCAUGUGAGGAUAUAGACGUGAAUUAAACACGUAACAAAACUAGAAGGCACUGGGC [Erbeardi]”, the results for the “apparent KD of MS2 coat protein” value with MS2 coat protein [1] and in the data set with MS2 coat protein [2] were 26.1 nM and 16.8 nM, respectively.
In the case of “GAAAACAGAGGAUAUACAUGAGGAUCACCCAUGUAAAAAUGUAGAAGGCUGAAAGAAAGAAGAAGGAAAGAAAA [Meechl Ex3 R2 m2]”, the “apparent KD of MS2 coat protein” value with MS2 coat protein [1] is 24.2 nM; with MS2 coat protein [2], 28.3 nM.
On to “AGCUAGUGAGGAUAUACGAACAUGUCAAAAGACGUGAAGGAACAUGAGGAUCACCCAUGUAGAAGGCACUAGCA [Mat - Exclusion 2 - JL-Eli mod - D54]”, for which the “apparent KD of MS2 coat protein” value was 17.2 nM with MS2 coat protein [1] and 14.6 nM in the data set with MS2 coat protein [2].
As to “AAAAGGUUAGGAUAUGCGUGGAAAAAGUGUAUCUAAAAAAAACAUGAGGAUCACCCAUGUAGAAGGGACUUAAA [Banishment 5 - Jieux - Exclusion 2]”, the “apparent KD of MS2 coat protein” value was determined as 49.7 nM with MS2 coat protein [1] and 37.1 nM in the data set on MS2 coat protein [2].
The like results for “AAAAAACAUGAGGAUCACCCAUGUAAGGAUAUGCUAGGAAAAAGAAAAAUAAAAACUAGCAGAAGGUACAUGAA [JL wbt mod 11]” were, in that order, 33.2 nM and 113 nM.
Turning to “UAUAACGAAGGAUAUACUAACGAAACUAAUGCAUAUAUAUAACAUGAGGAUCACCCAUGUAGAAGGUCGAGAAU [JR_Exc002_Sub011]”, the results for the “apparent KD of MS2 coat protein” value in the data set on MS2 coat protein [1] and with MS2 coat protein [2] were 23.7 nM and 28.8 nM, respectively.
Regarding “GGUUGGCGAGGAUAUACAUGAGGAUCACCCAUGUGAGAGGAAAAAGUGAGGAGGAGAAGUAGAAGGCGCUGACG [salish99-ex3-22]”, the “apparent KD of MS2 coat protein” value in the data set on MS2 coat protein [1] was determined as 29.6 nM; in the data set with MS2 coat protein [2] it was 138 nM.
Regarding “AAAAGGUGAGGAUAUACAUGAGGAUCACCCAUGUAGAAAGGAAGUGUAAAAAAAAAGUGUAGAAGGCAUCAUGA [MS2 Riboswitches On Chip Exclusion 3 wbt3]”, the “apparent KD of MS2 coat protein” value in the data set on MS2 coat protein [1] was found to be 39.2 nM; with MS2 coat protein [2], 48 nM.
Turning to “AGAAUACAUGAGGAUCACCCAUGUGAGGAUAUAUGAAGAAAAAGAAAAGAAAAGAAACAUAGAAGGCACAAAAG [EX 1 May 16]”, the “apparent KD of MS2 coat protein” value in the data set with MS2 coat protein [1] came to 16.1 nM; in the data set with MS2 coat protein [2], 86.7 nM.
The like results for “AGCUAGUCAGGAUAUACGCAAACGAACGAAGCUGAGAAGGGACAUGAGGAUCACCCAUGUAGAAGGGACUAGCA [Diamond 32]” were, in that order, 25.3 nM and 55.6 nM.
For “AAAAACGCAGGAUAUACAUGAGGAUCACCCAUGUAAAAAAAAAAAAAGGGAAAAAAAAGUAGAAGGGCGAAAAA [Menkhaure Snaaib]”, the “apparent KD of MS2 coat protein” value was 21.4 nM with MS2 coat protein [1] and 43.3 nM in the data set on MS2 coat protein [2].
Consider “ACAUGUACAGGAUAUACGUGGAAAAAAAAAAAAAAAAAACUACAUGAGGAUCACCCAUGUAGAAGGGUACAUGA [Ex2 Design 194: Random 12C]”, for which the “apparent KD of MS2 coat protein” value with MS2 coat protein [1] is 26.5 nM; in the data set with MS2 coat protein [2], 37 nM.
With “AAGGUACGAGGAUAUACAUAGAUACAGACACAUGUAGAUGUACAUGAGGAUCACCCAUGUAGAAGGCGUAUAUA [AJ 20]”, the results for the “apparent KD of MS2 coat protein” value in the data set on MS2 coat protein [1] and in the data set with MS2 coat protein [2] were 60.7 nM and 97.5 nM, respectively.
“AAAAAACAUGAGGAUCACCCAUGUCAGGAUAUCGUCAUAGAUGCAAAAGCAUCUAUGACGAGAAGGGACAUGCC [JL EX1 03]”: the “apparent KD of MS2 coat protein” value is 103 nM in the data set with MS2 coat protein [1] and 64.6 nM in the data set with MS2 coat protein [2].
Regarding “AAGAGUACAGGAUAUAUGUGAAAAGAGUCGAAAGACUCGGGACAUGAGGAUCACCCAUGUAGAAGGGUACUCAA [Diamond 75]”, the “apparent KD of MS2 coat protein” value with MS2 coat protein [1] came to 75.7 nM; with MS2 coat protein [2], 79.7 nM.
For the sequence “GAAAAGUGAGGAUAUUCGGAUAGGAAAACGAAAACCUAUCCGAAGAAGGCACAUGAGGAUCACCCAUGUGAAAG [Mat - Exaclusion 4 - Eli mod - D43]”, the “apparent KD of MS2 coat protein” value was 28 nM in the data set with MS2 coat protein [1] and 30.9 nM in the data set on MS2 coat protein [2].
The matching figures for “AAAGGACGAGGAUAUACAUGAGGAUCACCCAUGUAAAAAACAUAACAAAAGAACUUAUGUAGAAGGCGUCCAAA [69%, Moding Meechl, 2]”: 54.4 nM and 403 nM.
For the sequence “GGAAAACAUGAGGAUCACCCAUGUAAGGAUAUGCAAAAAAGGAUAUAGAAGGAAAAAAGCAGAAGGUACAAAGG [salish99-ex1-23]”, the “apparent KD of MS2 coat protein” value with MS2 coat protein [1] was 27.1 nM; in the data set with MS2 coat protein [2] it was 69.8 nM.
For “AACAGUACAGGAUAUACAUGAGGAUCACCCAUGUCACAGAAAUAAAACAAAAAUAAAAGUAGAAGGGUACUGGA [Ruby 41]”, the “apparent KD of MS2 coat protein” value in the data set with MS2 coat protein [1] worked out at 31.2 nM; in the data set with MS2 coat protein [2], 36.7 nM.
The matching figures for “AUUAUGUAAGGAUAUGUACGAACAACAAAACAAAUAACGGUACAGAAGGUACAUGAGGAUCACCCAUGUAUAAA [May 71]”: 23.6 nM and 21.4 nM.
As to “UAAAGACAUGAGGAUCACCCAUGUGAGGAUAUAGGUGUAUGCAAAAAAAAGUUAAAAACUAGAAGGCACAGAAA [JR_Exc001_Sub305]”, the “apparent KD of MS2 coat protein” value with MS2 coat protein [1] was 66 nM; with MS2 coat protein [2] it was 42.5 nM.
On to “AAAAAGUGAGGAUAUGCGCUGUGGAGUAGACACGACCAGUCGUAGAAGGCACAUGAGGAUCACCCAUGUUCAAA [EX4 Malc#21]”, for which the “apparent KD of MS2 coat protein” value stood at 27.4 nM in the data set with MS2 coat protein [1] and 25.3 nM in the data set on MS2 coat protein [2].
With “UCCGGACAUGAGGAUCACCCAUGUGAGGAUAUAUAACGUGGGACUGGAAACAAUCCCAAUAGAAGGCACAUGAC [Reisatridi]”, the “apparent KD of MS2 coat protein” value turned out to be 21.5 nM with MS2 coat protein [1] and 20.2 nM with MS2 coat protein [2].
Take “AGAAAGGUAGGAUAUACGAAAAAAAAGGGUAGAAAAAAAACACAUGAGGAUCACCCAUGUAGAAGGACCAAAGA [Mat - Exclusion 2 - Tesla mod - D31]”: the “apparent KD of MS2 coat protein” value in the data set with MS2 coat protein [1] is 35.2 nM; in the data set with MS2 coat protein [2], 47.5 nM.
As for “AGCUAGAGAGGAUAUACAUGGAAAAAAAAAGUCUGAUCCCUACAUGAGGAUCACCCAUGUAGAAGGCUCUGGCA [Ex2 Design 158: Sub-opt 22]”, the “apparent KD of MS2 coat protein” value was determined as 23.5 nM in the data set with MS2 coat protein [1] and 13 nM with MS2 coat protein [2].
Regarding “CUCUUGUCAGGAUAUUGAAGAAAAGAAGAGAAAGAAAAGAACAAGAAGGGACAUGAGGAUCACCCAUGUAAGAA [EteRNA is fun!]”, the “apparent KD of MS2 coat protein” value in the data set with MS2 coat protein [1] was 61.8 nM; in the data set with MS2 coat protein [2] it was 66.7 nM.
For the sequence “AGAAUACAUGAGGAUCACCCAUGUGAGGAUAUGUGAAGAAAAAGAAAAGAAAAGAAACACAGAAGGCACAAAAG [EX 1 May 17]”, the “apparent KD of MS2 coat protein” value was 29.7 nM with MS2 coat protein [1] and 69.3 nM with MS2 coat protein [2].
Take “AAGGGACAUGAGGAUCACCCAUGUCAGGAUAUGAUGCGAAUAAAGAAAGAAUAAAGCAUCAGAAGGGACGCCAA [Mat - Exclusion 1 - Eli mod - D65]”: the “apparent KD of MS2 coat protein” value in the data set on MS2 coat protein [1] amounted to 21.1 nM; in the data set with MS2 coat protein [2], 25.7 nM.
On to “AAGUAUAGAGGAUAUACAUAGAUACAGAUUCAUGUAGAACUACAUGAGGAUCACCCAUGUAGAAGGCUAUAAUA [AJ 34]”, for which the “apparent KD of MS2 coat protein” value in the data set on MS2 coat protein [1] came to 19.4 nM; in the data set on MS2 coat protein [2], 27.9 nM.
Take “AAGUUGGGAGGAUAUAUAUGGACACACAUUGGUGUAGAACUACAUGAGGAUCACCCAUGUAGAAGGCCCAAAUA [AJ 57]”: the figures for the “apparent KD of MS2 coat protein” value in the data set on MS2 coat protein [1] and in the data set with MS2 coat protein [2] were 20.3 nM and 33.1 nM, respectively.
With “AAAAAACAUGAGGAUCACCCAUGUGAGGAUAUUGGUAUUGAGGGUAUAAUCUCAAUAGCGAGAAGGCGCAUAAA [Brourd 613 Mod 14 - Jieux - Exclusion 1]”, the results for the “apparent KD of MS2 coat protein” value in the data set with MS2 coat protein [1] and in the data set on MS2 coat protein [2] were 31.7 nM and 45.3 nM, respectively.
Take “GUAAACCUAGGAUAUACAUGAGGAUCACCCAUGUAAAAAAUAAUAAAAAGAAAAAAAAGUAGAAGGAGGUAGAU [JR_Exc003_Sub1226]”: the “apparent KD of MS2 coat protein” value in the data set on MS2 coat protein [1] is 29.1 nM; in the data set with MS2 coat protein [2], 44 nM.
The like results for “ACAGUUACAGGAUAUACAAAGGUAACUUCAAAGAAAACUCUACAUGAGGAUCACCCAUGUAGAAGGGUAACUGA [Ex2 Design 200 (probably): Random 17]” were, in that order, 14.3 nM and 18.2 nM.

The record behind these values is the supplement of paper PMC9170038.
